The values below come from article PMC6299093, “BRCA2 controls DNA:RNA hybrid level at DSBs by mediating RNase H2 recruitment”.

Series [1] concerns the target T1, BRCA1 (Homo sapiens, UniProt P38398 1-1863). The series can be described thus: EMSA; 1 mM EDTA; 10 nM substrate; 25 mM Tris-HCl pH 7.5, 90 mM KCl, 1 mM EDTA, 1 mM DTT, 0.1 mg/ml BSA, RNaseOUT; 37 C 30 min; 10 nM substrate (competition: 1 nM, 10 + 10 min); 6% native PAGE at 4 C. As to conditions: protein: recombinant; tags: C-terminal 10xHis; N-terminal 2xMBP cleaved off with PreScission; blunt. A general note: In EMSA bound probe runs differently from free probe, usually more slowly.

Series [2] addresses T2, BRCA1;BARD1 (Homo sapiens;Homo sapiens, UniProt P38398;Q99728 1-1863;1-777, |). The series can be described thus: EMSA; 1 mM EDTA; 10 nM substrate; resistant to increasing salt (Supplementary Fig. 5a); 25 mM Tris-HCl pH 7.5, 90 mM KCl, 1 mM EDTA, 1 mM DTT, 0.1 mg/ml BSA, RNaseOUT; 37 C 30 min; 10 nM substrate (competition: 1 nM, 10 + 10 min); 6% native PAGE at 4 C. As to conditions: protein: recombinant;recombinant; tags: C-terminal 10xHis; N-terminal 2xMBP cleaved off with PreScission;; copies: 1;1; blunt.

Series [3] deals with T1, BRCA1. The series can be described thus: EMSA; 1 mM EDTA; 10 nM substrate; affinity comparable to dsDNA; 25 mM Tris-HCl pH 7.5, 90 mM KCl, 1 mM EDTA, 1 mM DTT, 0.1 mg/ml BSA, RNaseOUT; 37 C 30 min; 10 nM substrate (competition: 1 nM, 10 + 10 min); 6% native PAGE at 4 C. As to conditions: protein: recombinant; tags: C-terminal 10xHis; N-terminal 2xMBP cleaved off with PreScission; blunt.

The target of series [4] is T2, BRCA1;BARD1. The series can be described thus: EMSA; 1 mM EDTA; 10 nM substrate; affinity comparable to dsDNA; resistant to increasing salt (Supplementary Fig. 5a); 25 mM Tris-HCl pH 7.5, 90 mM KCl, 1 mM EDTA, 1 mM DTT, 0.1 mg/ml BSA, RNaseOUT; 37 C 30 min; 10 nM substrate (competition: 1 nM, 10 + 10 min); 6% native PAGE at 4 C. As to conditions: protein: recombinant;recombinant; tags: C-terminal 10xHis; N-terminal 2xMBP cleaved off with PreScission;; copies: 1;1; blunt.

B1: X12-3/X12-4C dsDNA 50 bp (dsDNA)
DNA 1: GACGTCATAGACGATTACATTGCTAGGACATGCTGTCTAGAGACTATCGC
DNA 2: GCGATAGTCTCTAGACAGCATGTCCTAGCAATGTAATCGTCTATGACGTC
As for B1, the binding result in series [1] and in series [2] was “binds” each time.

B2: X12-3 DNA/X12-4C RNA hybrid 50 bp (DNA:RNA)
DNA: B1 DNA 1
RNA: GCGAUAGUCUCUAGACAGCAUGUCCUAGCAAUGUAAUCGUCUAUGACGUC
modifications: second strand RNA
As to B2, the binding result in series [3] and in series [4] was “binds” each time.
